The text below walks through data of patent publication US20210187071A1, “COMPOSITIONS COMPRISING MDA-7/IL-24 PROTEIN AND METHODS OF USE” (VIRGINIA COMMONWEALTH UNIVERSITY, priority 2017, published 2021).

“Also recorded” adds a separate entry of the source.

The subject of one series is PC3-ML cells. The series is described as follows: MTT cell proliferation assay in PC3-ML cells. It counts as cell-based. Particulars: PC3-ML cells treated with MDA-7/IL-24 protein. The procedure: Purification of Recombinant His-MDA-7 Protein: IM-PHFA cells were infected with Ad.5-His-mda-7 using a published protocol (24). Cell supernatant was mixed with Ni-NTA (a nickel-nitrilotriacetic) acid slurry to allow binding of MDA-7/IL-24 to the Ni-NTA beads. Twenty-four hours after incubation, the Ni-NTA beads were collected, washed, and the purified MDA-7/IL-24 protein was eluted in imidazole buffer. The protein was validated by western blotting using anti-MDA-7 antibody (Genhunter Corporation, Nashville, Tenn., USA). Biological activity was checked in PC3-ML cells by MTT assay (25).
MTT Cell Proliferation and Clonal Assays: Cell proliferation assays were done as described previously (25). Briefly, 2,000 cells were seeded in each well of a 96-well plate and allowed to attach overnight. Cells were treated with complete media in the presence or absence of different concentrations of MDA-7/IL-24 protein. At appropriate time points, cells were further incubated with MTT (3-(4, 5-di methyl thiazol-2-yl)-2, 5 diphenyl tetrazolium bromide) reagents. Finally, DMSO was applied to dissolve the blue salt and the OD was measured at 560 nm (25). For determining long-term effects, colony formation (cloning) assays were performed as described earlier (26). Briefly, 200 cells were plated and allowed to grow in the presence or absence of MDA-7/IL-24 for an additional 15 days. […]

Series [1] concerns TRAP, Cathepsin K (CTSK), and Calcitonin Receptor (CTR) genes. The experiment in a line: RQ-PCR of osteoclastic genes in RAW 264.7 cells. Format: cell-based, mouse. The following applies: 5 days, MDA-7/IL-24 protein 10 μg/mL, RANKL 100 ng/mL. The procedure: Real Time q-PCR: Total RNA was isolated from cells with the RNA isolation kit from Qiagen (Valencia, Calif., USA). RQ-PCR was performed using TaqMan probes and master mix from Applied Biosystems (Foster City, Calif., USA). Data were analyzed using the graph pad prism software.
To investigate the effect of MDA-7/IL-24 on osteoclast differentiation, bone marrow cells from athymic nude mice were isolated and induced to differentiate with RANKL in the presence or absence of MDA-7/IL-24 protein. Five days after induction with RANKL, osteoclast differentiation was measured by counting multinucleated cells. Cells positively stained for TRAP and multinucleated cells were quantified under a light microscope (FIG. 9A). […] To provide molecular insights into this inhibitory effect, we used a mouse macrophage cell line RAW 264.7, which can be induced to differentiate into osteoclasts when incubated with RANKL (32). Using RAW 264.7 cells, different genetic markers associated with osteoclastic differentiation were monitored (33). RAW 264.7 cells were treated with RANKL or MDA-7/IL-24 alone and in combination. RNA was isolated after 5 days of treatment and real time PCR quantified expression of TRAP, Cathepsin K (CTSK), and Calcitonin Receptor (CTR) genes. RANKL induced the expression of TRAP, CTSK and CTR gene expression. […]

The subject of series [2] is bone marrow cells. The series is described as follows: In vitro RANKL-induced osteoclast differentiation of primary bone marrow cells. It counts as cell-based, athymic nude mice. The following applies: RANKL induction 5 days, 10 μg/mL MDA-7/IL-24 protein. The procedure:
(§1) Osteoclast Formation Assays: Bone marrow cells were induced for osteoclast differentiation using previously described protocols (28). Briefly, bone marrow cells were cultured in minimal essential medium (α-MEM) with 10% fetal bovine serum with MCSF (10 ng/ml) for 24 hrs. They were subsequently treated with RANKL (100 ng/ml) for 5 days. Cultured cells were fixed and stained for TRAP (Tartarate-resistant acid phosphatase). TRAP staining was performed following the specific protocol provided with the kit (Sigma-Aldrich, Inc. St. Louis, Mo., USA). Multinucleated cells, considered as differentiated osteoclasts, were counted manually under bright field microscope. TRACP enzymatic assays were done as per the manufacturer's instructions (R & D, Minneapolis, Minn., USA).
To investigate the effect of MDA-7/IL-24 on osteoclast differentiation, bone marrow cells from athymic nude mice were isolated and induced to differentiate with RANKL in the presence or absence of MDA-7/IL-24 protein. Five days after induction with RANKL, osteoclast differentiation was measured by counting multinucleated cells. Cells positively stained for TRAP and multinucleated cells were quantified under a light microscope (FIG. 9A). […] To provide molecular insights into this inhibitory effect, we used a mouse macrophage cell line RAW 264.7, which can be induced to differentiate into osteoclasts when incubated with RANKL (32). Using RAW 264.7 cells, different genetic markers associated with osteoclastic differentiation were monitored (33). RAW 264.7 cells were treated with RANKL or MDA-7/IL-24 alone and in combination. RNA was isolated after 5 days of treatment and real time PCR quantified expression of TRAP, Cathepsin K (CTSK), and Calcitonin Receptor (CTR) genes. RANKL induced the expression of TRAP, CTSK and CTR gene expression. […] MTT assays were performed to determine if MDA-7/IL-24 caused any growth suppression in this cell line. Proliferation of RAW 264.7 was not affected by MDA-7/IL-24, further illustrating the tumor-specificity of this cytokine (FIG. 10B). DU-145 (PC) cells were used as a positive control (FIG. 10C).

The subject of series [3] is primary bone marrow cells. The series is described as follows: Live-dead cell assay on primary bone marrow cells. Format: cell-based, mouse. Particulars: treated in vitro at different doses. As for the experimental part: Live-Dead Cell Assay: Live and dead cells were observed by confocal laser microscopy (Zeiss, Germany) after staining with live/dead staining reagent (Invitrogen, Carlsbad, Calif., USA) as per the manufacturer's instructions. The images were analyzed by Zeiss software.
BLI imaging followed development of metastatic lesions in bone.

The next series deals with PC cells. The experiment in a line: Colony formation (clonal) assay in PC cell lines. Format: cell-based. The following applies: 200 cells plated, colonies counted 2 weeks after treatment. As for the experimental part:
MTT Cell Proliferation and Clonal Assays: Cell proliferation assays were done as described previously (25). Briefly, 2,000 cells were seeded in each well of a 96-well plate and allowed to attach overnight. Cells were treated with complete media in the presence or absence of different concentrations of MDA-7/IL-24 protein. At appropriate time points, cells were further incubated with MTT (3-(4, 5-di methyl thiazol-2-yl)-2, 5 diphenyl tetrazolium bromide) reagents. Finally, DMSO was applied to dissolve the blue salt and the OD was measured at 560 nm (25). For determining long-term effects, colony formation (cloning) assays were performed as described earlier (26). Briefly, 200 cells were plated and allowed to grow in the presence or absence of MDA-7/IL-24 for an additional 15 days. Culture media was replaced with fresh media containing MDA-7/IL-24 protein once a week, two times in total.

Series [4] deals with bone marrow cells. The series is described as follows: Osteoclast differentiation of bone marrow from animals injected with elevated Akt-stable expression cells. It counts as in vivo, mice. The following applies: MDA-7/IL-24 protein 5 mg/kg, 6 doses; differentiation induced ex vivo. The procedure:
as §1
To evaluate the role of Akt in vivo, metastatic PC3-ML cells and PC3-ML cells over expressing constitutively active Akt (PC3-MI/**) (FIG. 5A) carrying firefly luciferase were injected into male athymic nude mice through the intracardiac route. Clone 1 was used for the in vivo studies, which was validated for expression of Akt downstream pathway gene expression by western blotting (FIG. 14). Proliferation, invasion, and migration of the tumor cells were monitored by IVIS® imaging. […] The Akt overexpressing PC3-ML cells were more metastatic than the control PC3-ML cells. […]

B1: MDA-7/IL-24 protein: Recombinant His-tagged MDA-7/IL-24 protein purified on Ni-NTA from supernatant of IM-PHFA cells infected with Ad.5-His-mda-7 (protein)
chain: QEFHFGPCQVKGVVPQKLWEAFWAVKDTMQAQDNITSARLLQQEVLQNVSDAESCYLVHTLLEFYLKTVFKNYHNRTVEVRTLKSFSTLANNFVLIVSQLQPSQENEMFSIRDSAHRRFLLFRRAFKQLDVEAALTKALGEVDILLTWMQKFYKL
As to B1, the “Cell proliferation (MTT assay)” value in the series with PC3-ML cells is given as “significant inhibition in cell proliferation”; with PC3-ML cells (listed as MDA-7/IL-24) it was “significantly impaired”. Also, in series [1], the “RANKL-induced TRAP, CTSK and CTR gene expression” value was “attenuated RANKL-induced regulation of these genes”. Moreover, the “number of osteoclasts (osteoclast differentiation)” value in the series with bone marrow cells [2] (listed as His-MDA-7) is listed as “decreased significantly”; in the series with bone marrow cells [2] (listed as MDA-7/IL-24), “significantly reduced; also recorded: reduced osteoclast differentiation”. The “osteoclast activity (TRACP enzymatic activity)” value was “significantly less” with bone marrow cells [2] (listed as His-MDA-7) and “significantly reduced” with bone marrow cells [2] (listed as MDA-7/IL-24). Also, the “toxicity in primary bone marrow cells” value is given as “No apparent toxicity” in series [3] (listed as His-MDA-7) and “no effect” in series [3] (listed as MDA-7/IL-24). Further, in the series on PC cells, the “proliferation of PC cells (colony formation)” value is reported as “significantly reduced the proliferation of PC cells”. In the series on bone marrow cells [4], the “osteoclastic activity of bone marrow from animals with Akt overexpressing cells” value is “decreased”.
